In article PMC8881611, “A mechanism of origin licensing control through autoinhibition of S. cerevisiae ORC·DNA·Cdc6” (Nature Communications, 2022):

Experiments:
Test in all cases: pull-down; amylose pulldown, ORC with MBP-tagged Orc4 as bait; 0.5 uM ScORC, 0.5 uM 84 bp ARS1 dsDNA, 1 uM ScCdc6, 10 uM ScMcm7 (titrations 1.5, 5, 10 uM), 2 mM ATPγS; 25 mM HEPES pH 7.5, 300 mM potassium acetate, 10 mM magnesium acetate, 1 mM DTT; on ice; maltose elution, Coomassie-stained SDS-PAGE
Details in all cases: both partners purified
[1] = molecular target: T1, ScORC·DNA·Cdc6 with MBP-tagged ORC holding Orc6 ΔCBN (Orc6Δ1-120), ORC untreated (S. cerevisiae, UniProt P54784 1-914; P32833 1-620; P54790 1-616; P54791 1-529; P50874 1-479; P38826 …)
T1 construct: Orc1, S. cerevisiae, wild type; Orc2, S. cerevisiae, wild type; Orc3, S. cerevisiae, wild type; Orc4, S. cerevisiae, wild type; Orc5, S. cerevisiae, wild type; Orc6, S. cerevisiae, truncation Orc6Δ1-120 (lacks the N-terminal cyclin box fold); Cdc6, S. cerevisiae, wild type; The unstructured linker region of Orc6ΔCBN is prone to proteolytic cleavage during expression and purification; also called …

[2] = molecular target: T2, ScORC·DNA·Cdc6 with MBP-tagged ORC holding Orc6 ΔCBN (Orc6Δ1-120), ORC dephosphorylated with λ phosphatase (S. cerevisiae, UniProt P54784 1-914; P32833 1-620; P54790 1-616; P54791 1-529; P50874 1-479; P38826 …, ORC treated with λ phosphatase | ORC treated with λ phosphatase)
T2 construct: Orc1, S. cerevisiae, wild type; Orc2, S. cerevisiae, wild type; Orc3, S. cerevisiae, wild type; Orc4, S. cerevisiae, wild type; Orc5, S. cerevisiae, wild type; Orc6, S. cerevisiae, truncation Orc6Δ1-120 (lacks the N-terminal cyclin box fold); Cdc6, S. cerevisiae, wild type; ORC dephosphorylated before assembly with DNA, Cdc6 and ATPγS; also called Orc6 ΔCBN, λ phosphatase; Orc6^ΔN120; source: …

[3] = molecular target: T3, ScORC·DNA·Cdc6 with MBP-tagged ORC holding Orc6 ΔCBN (Orc6Δ1-120), ORC phosphorylated by CDK (S. cerevisiae, UniProt P54784 1-914; P32833 1-620; P54790 1-616; P54791 1-529; P50874 1-479; P38826 …, ORC treated with CDK; phosphorylated sites not printed | ORC treated with CDK; phosphorylated sites not given)
T3 construct: Orc1, S. cerevisiae, wild type; Orc2, S. cerevisiae, wild type; Orc3, S. cerevisiae, wild type; Orc4, S. cerevisiae, wild type; Orc5, S. cerevisiae, wild type; Orc6, S. cerevisiae, truncation Orc6Δ1-120 (lacks the N-terminal cyclin box fold); Cdc6, S. cerevisiae, wild type; ORC phosphorylated by CDK before assembly with DNA, Cdc6 and ATPγS; also called Orc6 ΔCBN, CDK; Orc6^ΔN120; source: MBP-ORC: …

[4] = molecular target: T4, ScORC·DNA·Cdc6 with MBP-tagged ORC holding Orc6 ΔCBN/Δlinker (Orc6Δ1-269), ORC dephosphorylated with λ … (S. cerevisiae, UniProt P54784 1-914; P32833 1-620; P54790 1-616; P54791 1-529; P50874 1-479; P38826 …, ORC treated with λ phosphatase)
T4 construct: Orc1, S. cerevisiae, wild type; Orc2, S. cerevisiae, wild type; Orc3, S. cerevisiae, wild type; Orc4, S. cerevisiae, wild type; Orc5, S. cerevisiae, wild type; Orc6, S. cerevisiae, truncation Orc6Δ1-269 (lacks the N-terminal cyclin box fold and the flexible linker); Cdc6, S. cerevisiae, wild type; ORC dephosphorylated before assembly with DNA, Cdc6 and ATPγS; also called Orc6 ΔCBN/Δlinker, λ …

[5] = molecular target: T5, ScORC·DNA·Cdc6 with MBP-tagged ORC holding Orc6 ΔCBN/Δlinker (Orc6Δ1-269), ORC phosphorylated by CDK (S. cerevisiae, UniProt P54784 1-914; P32833 1-620; P54790 1-616; P54791 1-529; P50874 1-479; P38826 …, ORC treated with CDK; phosphorylated sites not given)
T5 construct: Orc1, S. cerevisiae, wild type; Orc2, S. cerevisiae, wild type; Orc3, S. cerevisiae, wild type; Orc4, S. cerevisiae, wild type; Orc5, S. cerevisiae, wild type; Orc6, S. cerevisiae, truncation Orc6Δ1-269 (lacks the N-terminal cyclin box fold and the flexible linker); Cdc6, S. cerevisiae, wild type; ORC phosphorylated by CDK before assembly with DNA, Cdc6 and ATPγS; also called Orc6 ΔCBN/Δlinker, …

Measured: binding result

B1: S. cerevisiae Mcm7 (ScMcm7) (natural protein, UniProt P38132 1-845, looked up)
chain: MSAALPSIQLPVDYNNLFNEITDFLVTFKQDTLSSDATRNENEDENLDAENIEQHLLEKGPKYMAMLQKVANRELNSVIIDLDDILQYQNEKFLQGTQADDLVSAIQQNANHFTELFCRAIDNNMPLPTKEIDYKDDVLDVILNQRRLRNERMLSDRTNEIRSENLMDTTMDPPSSMNDALREVVEDETELFPPNLTRRYFLYFKPLSQNCARRYRKKAISSKPLSVRQIKGDFLGQLITVRGIITRVSDVKPAVEVIAYTCDQCGYEVFQEVNSRTFTPLSECTSEECSQNQTKGQLFMSTRASKFSAFQECKIQELSQQVPVGHIPRSLNIHVNGTLVRSLSPGDIVDVTGIFLPAPYTGFKALKAGLLTETYLEAQFVRQHKKKFASFSLTSDVEERVMELITSGDVYNRLAKSIAPEIYGNLDVKKALLLLLVGGVDKRVGDGMKIRGDINVCLMGDPGVAKSQLLKAICKISPRGVYTTGKGSSGVGLTAAVMKDPVTDEMILEGGALVLADNGICCIDEFDKMDESDRTAIHEVMEQQTISISKAGINTTLNARTSILAAANPLYGRYNPRLSPLDNINLPAALLSRFDILFLMLDIPSRDDDEKLAEHVTYVHMHNKQPDLDFTPVEPSKMREYIAYAKTKRPVMSEAVNDYVVQAYIRLRQDSKREMDSKFSFGQATPRTLLGIIRLSQALAKLRLADMVDIDDVEEALRLVRVSKESLYQETNKSKEDESPTTKIFTIIKKMLQETGKNTLSYENIVKTVRLRGFTMLQLSNCIQEYSYLNVWHLINEGNTLKFVDDGTMDTDQEDSLVSTPKLAPQTTASANVSAQDSDIDLQDA
notes: Mcm7, S. cerevisiae; migrates as a doublet on SDS-PAGE; source: E. coli BL21 RIL, purified (HisTrap, amylose, TEV cleavage, HisTrap, gel filtration); not shown: His6, N-terminal, cleaved; MBP, N-terminal, cleaved
binds: all assays above
